Test results: a protein production outcome set (Wang et al. 2014)

Test: label from the status in PepcDB records
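Further: failed if final PepcDB status was selected cloned or expressed and not failed if soluble or beyond.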

Row | Sequence | protein production
1 | MQVKTEEKSVNNKKLIPFWVIERALEGDIQAINKILKHYEGYIAKLSVRKMYDEYGCVHYCVDETLRRRLETKLIKTIIGFKIVRLEHHHHHH | not failed
2 | MSLNTSIYGLIGEKLGHSHSSYIHKLIFEKVGIKGIYNLFEVPKEKLKESVDTFKIIKCGGLNVTIPYKVEVMKELYEISEKARKIGAVNTLKFSREGISGFNTDYIGFGKMLSKFRVEIKNNICVVLGSGGAARAVLQYLKDNFAKDIYVVTRNPEKTSEIYGEFKVISYDELSNLKGDVIINCTPKGMYPKEGESPVDKEVVAKFSSAVDLIYNPVETLFLKYARESGVKAVNGLYMLVSQAAASEEIWNDISIDEIIVDEIFEVLEEKIKSEGHHHHHH | not failed
3 | MAMMAKHQAVKKIFDQIATKYDLIDTIISLGLDQHWRRVLVSSLGLREGMRCLDCGAGSGKVTELIYFRCGGCDVTALDITDSMFNPELKKYVKFVVSPAESLPFPDASFDRVSSAFLTRNLADIDRYFAEVYRVLRPGGVFVNMDIYNPTRPVISEFFSLYFYRFVPFFGNRATGSKNYTYLANTVKYFHRPSVISQKLADRGFSVEATDLFFGAVYLHRSVKPEGRGLEHHHHHH | failed
4 | MGHHHHHHENLYFQSHINEQEREIEKLKRQMAEYGAIIKSLQFRQNSLEDTFIPDLTPKVEPSVNPTGCLLGSNAVHLMRDIKKECDYLGIPDPVPATKPTTQAQDDSQKKAKRSCFGRLFTGPFRRGTSAMKTADEYEKDDRLEELYAQLERDPDP | failed
5 | MAKAGGITNAVNVGIAVQADWENREFISHISLNVRRLFEFLVQFGKPHSLTYFSVLGFEFN | failed
6 | MLNSDIYLKESLYDLLSLWRTPAFFLPAMLFPLVFYVFFGIVFNFSAAQGEYMLVSYACFGMMGPALFNYATAVASDRAQGWLTLKRISPMPLSAYVVAKFFSSLVFAACIALMLFITAALFADVQLLLWQWATLFTVLLIGTLPFALIGLLMGLCLSDKAAPAVVNLVYLPMAFLSGLWVPIQFLPDTVRYIAYGLPSYHYSQLAHAVIGTNQGHNLWLHGLYLVAFCGVLIAVIYWRYQRLSR | failed
7 | MPTYLFLSSGNVLADRRYDFARELLARGEAEAAADLLAQAVELAPDFTSAWFALGEIRQDRLGNREGAVDAFRRARAADPRDRHGAGLRLMRLGAADLDAMSPAYIGALFDQYAPRFDKSLVEDLGYRGPALLFEAVREVCETTGRAMAFRRAIDLGCGTGLVGRAFAPIISEIIGFDLAPQMIERARATGVYGRLAVTDLVQGLANEPPASAELILAADVLIYIQDVAPLLHEAARVLPPGGLLAVTAETHAGDGVVLTAGLRFAQAESYLRAELERAGLVVALLQYASARNEKHTPLPGLVVVAFRPNG | failed
8 | MILLEGSYREMGRQYGGLMKTELLSEYAMLTKTLEDRGYSLDYLRWYASAGTQFQPERMKEITRGMAETTGLSEADLSILYYGPALYISMPAGCSYLAVWDTYTTDGSVVLSRNWDLPDLLDPFNPYYVLAVCRPTDGSNGVATFGPAGSRPETLMNSAGLFIADDNSGLAPVGQDDRPDLISEFFRLMLDYSDLDGLKTGVLTTRPDVAWIVDVGGPDGAYVFEVGLNETKVRIGDGVVAAANHFVDPSWDLTTPPGEHSLTRYANLLSQAEAAKGSIDAEEMMQIRDVLMTDDGATFRHSELFGYPYSSNHQVVFVPATRTLWMKVIDLDWQKVELAPLFAM | failed
9 | MFALISKINPGAWWLIFAIATDVLSTFYSAKGNGLVNKTAQGIALVLYIISFACAAIALKYMQAGILYVLWSGVGVLATAFLAKIFLGQNIDVAGWIGIGFITVGLMIIAQYY | failed
10 | MSKIEIFEAAGCCATSSVVVSDEAVKWNASAEWAKKHGVNIQRYSLAKNPQQFLNTPVIRAFLNTSGMESLPATLLDGQLVMAGKLPSREDIARWAG | not failed
11 | MSLEGIKQINFQSINVVENLEEAKEGIPTIIMFKTDTCPYCVEMQKELSYVSKEREGKFNIYYARLEEEKNIDLAYKYDANIVPTTVFLDKEGNKFYVHQGLMRKNNIETILNSLGVKEGHHHHHH | not failed
12 | MTDYFHLHFNKGEFNAENLFIELKGNFAVYGSRWYFGESIETLKGTARTLDKADGAISLEDGIISRNGIALLDDSQGFIWDEQSGYIERENQIDLYFFAYGHDYRGAIRDFYHLTGSTPLLPRYALGNWWSRYWPYTSDEYLDLIDRFETEKIPLSIGVLDMDWHITDIPARFGSGWTGYSWNRNLIPNPEQLLQQLHDRKLKLSLNVHPADGIRAYEEAYPQIAKRLGLNVELEEPAIFDFFNPSFREAYFKDVHYELEKQGVDFWWIDWQQGTQGMLDPLWLLNHYHYQDSCKNAEGGLILSRYAGPGSHRYPVGFSGDTIISWNSLRFQPYFTATASNIGYSWWSHDIGGHMLGDYDEELQTRWLQFGVFSPITRLHSSRSPFNSKEPWFFSETTSKIMKKYLRLRHQMIPYLYTMNVQTHEEGAPLISPIYYFYPENDESYNVPNQYFFGTELMVAPIVEKMDLTFQSAKVDVWFPEGEWYDFFSEKKYTGGVKLSVYRDISTTPVFAKSGAIIPLVGSEIGMGVDLPEVVDWYVFPGKQHSFEMLEDQNGQRYKTRLSIDWEMGMVELALQGDSSIVPSNRKHRIHFKGTNVSIIELPNKNDTAKFEWKDNKRTSLNDEVFRLLKTASLPYELKDRLLNQFINAKNSHDLMNILHHQDKELRGRLLEMIFTSQNLEHHHHHH | failed
13 | MTDYVNYNQERWNRVSARQGNAYTVPLSHEEFLVAKDKPLSVSLTVGKTVPLDWFEKAKGKKLLGLACGGGQQGPISAAHSYETTILDFSKEQLDKDRLVAERENLDLQTVQADMTQAFPFEDESFDIIFCPVSNIYIEDLANMWQESYRVLKKGGLLMVGYMNPWIYVFDADDVWEHPDKTLVPKYSLPFNARQLEEAGQITIDPEYGYEFSHTLEEQIAGQLRAGFAMIDFYESKDSRNRLTQFASDYLANLSMKW | failed
14 | MTTLTRQDLNFGQVVADVLSEFLEVAVHLILYVREVYPVGIFQKRKKYNVPVQMSCHPELNQYIQDTLHCVKPLLEKNDVEKVVVVILDKEHRPVEKFVFEITQPPLLSINSDSLLSHVEQLLRAFILKISVCDAVLDHNPPGCTFTVLVHTREAATRNMEKIQVIKDFPWILADEQDVHMHDPRLIPLKTMTSDILKMQLYVEERAHKNS | not failed
15 | MGYRRFLQLVAHEFFHLWNVKRIRPKALEQFDYEAENYTPSLWFSEGATSYYDLLLPLRAGLYGVDSFLEALGKDLSRYLTTPGRKVQPLAESSFDAWVKLYRRDAYSDNQQMSYYLKGQLVCWLLDLEIRNHQPDLEHHHHHH | not failed
16 | MSAKRVFEKFDKNKDGKLSLDEFREVALAFSPYFTQEDIVKFFEEIDVDGNGELNADEFTSCIEKML | not failed
17 | QIHLFSEPQFQGHSQSFEETTSQIDDSFSTKSCRVSGGSWVVYDGENFTGNQYVLEEGHYPCLSAMGCPPGATFKSLRFI | not failed
18 | MNWKDKVKTTFYSCDRFVRFVIQHFIQDDCTYIASALAFTSLLAVVPLMSVGLAIFSSFPVFQGLAEPVQNFIFDNFVPATGKIVQSYLQQFTSQVSKLSIWGIVFLIFTALLVMFTIERAMNKIWRVSSSRHGVSAFLLYWAIISLAPVLLGLSLAASSYLFSMPILADHRAPYTILHYSPFFLSLIGFTFLYVVVPNCPVKIRHAFWGGLVAAILFESAKHAFAYYLIRYNTYALLYGAFATVPIFFIWVYWVWIITLLGAEISYAFSVHHQRRGGKSLDGFSHALLWLHQLWLAQQHGKGLSFNDLVDASKQPFAVDVDEMINALIYHELIHATADGHYMLSRDLSHVTLYDLTQLLPYRLPTHLELQYSKASLAEQWRAAFKRHNEELKKSLDINLEELFKKTGTVIK | failed
19 | MAAIPALDPEAEPSMDVILVGSSELSSSVSPGTGRDLIAYEVKANQRNIEDICICCGSLQVHTQHPLFEGGICAPCKDKFLDALFLYDDDGYQSYCSICCSGETLLICGNPDCTRCYCFECVDSLVGPGTSGKVHAMSNWVCYLCLPSSRSGLLQRRRKWRSQLKAFYDRESENPLEMFETVPVWRRQPVRVLSLFEDIKKELTSLGFLESGSDPGQLKHVVDVTDTVRKDVEEWGPFDLVYGATPPLGHTCDRPPSWYLFQFHRLLQYARPKPGSPRPFFWMFVDNLVLNKEDLDVASRFLEMEPVTIPDVHGGSLQNAVRVWSNIPAIRSSRHWALVSEEELSLLAQNKQSSKLAAKWPTKLVKNCFLPLREYFKYFSTELTSSL | failed
20 | SLPIASTATQMGSNKTRIFARQPAKAPPPLAWLSRPRDPRATAIAAAGQQSSRRVSKRELESHGSATDAWTAIHGVVYDITAYFRFHPGGAEILFIEAAGKDSTAVFDEMHPWVNVAWLLKDYRIGLYAPESEDDGGDDDDDDRTMTSPE | not failed
21 | MKITLIIPTYNAGSIWPNVLDAIKQQTIYPDKLIVIDSGSKDETVLLASDLKNISIFNIDSKDFNHGGTRNLAVTKTLDADVIIFLTQDAILADSDAIKNLVYYFSDPLIAAVCGRQLPHKDANPLAVHARNFNYSSKSIVKSKADIEKFGIKTVFMSNSFAAYRRSVFEELSGFPEHTILAEDMFMAAKMIQAGYKVAYCAEAVVRHSHNYTPREEFQRYFDTGVFHACSPWIQRDLGGAGGEGFRFVKSEIQFLLKNAPFWIPRALLTTFAKFLGYKLGKHWQSLPLSTCRYFSMYKSYWNNIQYSSSKEIKLEHHHHHH | failed
22 | MSLSKKTIYIAGLGLIGGSLALGIKRDHPDYEILGYNRSDYSRNIALERGIVDRATGDFKEFAPLADVIILAVPIKQTMAYLKELADLDLKDNVIITDAGSTKREIVEAAERYLTGKNVQFVGSHPMAGSHKSGAIAADVTLFENAYYIFTPTSLTKETTIPELKDILSGLKSRYVEIDAAEHDRVTSQISHFPHLLASGLMEQAADYAQAHEMTNHFAAGGFRDMTRIAESEPGMWASILMTNGPAVLDRIEDFKKRLDHVADLIKAEDESAIWEFFDNGRKKRKEMEIHKKGGVESAFDIFVDVPDREGHHHHHH | not failed
23 | MRKDDVVIVTCAITGAIHTPSMSPYLPVTPDQIVEEAVKAAEAGAGMVHIHARDPKDGRPTTDVEVFRYICREIKKQSDVVINVTTGGGGTLGIPVEERAKVVPALKPEIATFNMGSMNFAIHPLLKKYKEFKYDWEPEYLEMTRDIVFRNTFKDLEALSRIFKENDTKPELECYDIGQIYNTAFMFHEGYLEPPLRLQFIHGILGGIGTAVEDVLFMKQTADRLIGRENYTWSLVGAGRFQMPLGTLAVIMGGDVRVGLEDSLYIERGKLAKSNAEQVEKMVRIVKELGKRPATPDEVREILGLKGKERVNF | not failed
24 | MTGQAAGPAAGPAAGQATKHAGGRRPGETRTREAILTAARVCFAERGFDATSLRRIAETAGVDQSLVHHFYGTKENLFLQALELPGKIEEAITAAAQGGLDGIGERVVRAHLSVWDDVSSRPALMTMVRSAAIHRAAAARLRETATGILARALGGVITGEDAMLRTSMVATQLVGLAMMRYVAHLEPLASADTDTVARHYGRAVQAIVTDRD | not failed
25 | MDLVEKVKELCLELEEENLAKAIERFITLTHGIEKTRGEAFAKASIYGFLEGILTTLKMKYSNEKIETLLNEVKTAREETEALLRKPRPPLLVDNDL | not failed
26 | MPHFHFSWREKFSVFRMAAEPPEKLVGALVGGLRVLRYLSAAPAGVGVTRVARDLQLNSSTCYNFLKTLVYEGLVTFDESTKTYSIALGLVELAKGVLEQGAYVRLIHPHLEEIARAHRVTATLWQRTSNERVVLVDRADNDSSVRVHMSVGQRLPMYIAALGRCMAANAGLDRDQLEQRFNALRWDDKPPFDEYLAGVQEARKNGYATDAGHYVKGVSTASAAVLDAFGKPVMAISAVGFSAQFTGDALEQLGEDLHERAGRITRALSGGRAGADS | failed
